Data as given in the supplement of paper PMC7877785.
± gives the uncertainty stated by the source.

Assay: self-splicing fitness, log relative to wild type (ln ratio); higher = more splicing; Tetrahymena group I intron in knt gene, E. coli kanamycin selection, DiMSum; sequences stand for … in CUCUCU…GGAGGGAAAAGUUAUCAGGCAUGCACCUGGUAGCUAGUCUUUAAACCAAUAGAUUGCAUCGGUUUAAAAGGCAAGACCGUCAAAUUGCGGGAAAGGGGUCAACAGCCGUUCAGUACCAAGUCUCAGGGGAAACUUUGAGAUGGCCUUGCAAAGGGUAUGGUAAUAAGCUGACGGACAUGGUCCUAACCACGCAGCCAAGUCCUAAGUCAACAGAUCUUCUGUUGAUAUGGAUGCAGUUCACAGACUAAAUGUCGGUCGGGGAAGAUGUAUUCUUCUCAUAAGAUAUAGUCGGACCUCUCCUUAAUGGGAGCUAGCGGAUGAAGUGAUGCAACACUGGAGCCGCUGGGAACUAAUUUGUAUGCGAAAGUAUAUUGAUUAGUUUUGGAGUACUCGUGGUCG
Method in brief: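 Colonies from six replicate transformations of E. coli BL21(DE3) were pooled and amplicon-sequenced on an Illumina HiSeq 2500. The library placed an intron with all eight P1ex-region nucleotides randomised inside the knt kanamycin-resistance gene on pET-22b(+), and cells grew overnight at 37°C or 30°C on LB agar with or without 25 μg/mL kanamycin (plus 100 μg/mL carbenicillin, 50 μM IPTG, 0.2% rhamnose). Fitness is the DiMSum error-weighted combination of wild-type-normalised replicate fold changes, kanamycin versus none.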

Sequence	self-splicing fitness (ln) (30 °C)	self-splicing fitness (ln) (37 °C)
GAGGAGCAAUAUUACGACUU	-2.79 ± 0.23	-1.97 ± 0.2
UUUCAGCAAUAUUACGGGUC	-3.24 ± 0.26	-2.14 ± 0.2
AGCCAGCAAUAUUACGAUUA	-2.22 ± 0.27	-2.48 ± 0.28
UAGAAGCAAUAUUACGGUGU	-3.23 ± 0.14	-3.06 ± 0.15
AACGAGCAAUAUUACGGAGA	-3.61 ± 0.26	-2.8 ± 0.28
GCGCAGCAAUAUUACGGACU	-0.744 ± 0.12	-0.35 ± 0.12
AUUGAGCAAUAUUACGCGGC	-3.26 ± 0.38	–
UCAUAGCAAUAUUACGAGGC	-2.86 ± 0.35	-1.44 ± 0.2
CCUUAGCAAUAUUACGGCGG	-2.92 ± 0.17	-2.05 ± 0.21
ACUUAGCAAUAUUACGAGAU	-2.61 ± 0.2	-2.95 ± 0.24
UCACAGCAAUAUUACGGACU	-2.99 ± 0.15	-2.16 ± 0.14
UCAUAGCAAUAUUACGCUGU	-2.91 ± 0.17	-1.95 ± 0.24
CGUGAGCAAUAUUACGUUUA	-3.08 ± 0.39	–
CGUUAGCAAUAUUACGUCUU	-4.03 ± 0.26	-1.29 ± 0.099
CGGCAGCAAUAUUACGUAUC	-3.9 ± 0.33	-2.86 ± 0.27
CGCAAGCAAUAUUACGUGCG	-2.81 ± 0.26	-2.23 ± 0.2
GCAAAGCAAUAUUACGUGUA	-0.807 ± 0.071	-0.701 ± 0.074
GGGUAGCAAUAUUACGACGU	-0.726 ± 0.12	-0.0177 ± 0.14
CCUGAGCAAUAUUACGUGCU	-3.25 ± 0.19	-2.24 ± 0.2
CCGUAGCAAUAUUACGUACU	–	-2.03 ± 0.32
AGGCAGCAAUAUUACGCCUC	-3.08 ± 0.33	–
CACGAGCAAUAUUACGUCCC	-1.45 ± 0.25	–
CUUGAGCAAUAUUACGUCCG	-1.86 ± 0.19	-0.79 ± 0.19
CCGCAGCAAUAUUACGUUCG	-0.778 ± 0.056	-0.0727 ± 0.077
GUGCAGCAAUAUUACGGCGC	-2.72 ± 0.17	-2.41 ± 0.32
GACUAGCAAUAUUACGUUUU	-2.43 ± 0.095	-1.42 ± 0.11

Sequence	self-splicing fitness (ln) (30 °C)	self-splicing fitness (ln) (37 °C)
UUCAAGCAAUAUUACGAUUA	-0.129 ± 0.08	0.183 ± 0.081
UGGCAGCAAUAUUACGGGUC	-3.28 ± 0.29	-1.28 ± 0.28
CCAGAGCAAUAUUACGUACG	-1.46 ± 0.12	-0.669 ± 0.13
AGUGAGCAAUAUUACGAAGA	-2.9 ± 0.35	-1.85 ± 0.18
GGGCAGCAAUAUUACGUUCC	-2.68 ± 0.23	-2.58 ± 0.37
CACUAGCAAUAUUACGAUUC	-3.02 ± 0.23	-1.14 ± 0.26
CCCUAGCAAUAUUACGUCAC	-2.55 ± 0.24	-1.44 ± 0.34
UUCGAGCAAUAUUACGUUGU	-2.49 ± 0.18	-2.75 ± 0.24
CAUCAGCAAUAUUACGGUCC	-1.37 ± 0.2	-0.885 ± 0.29
UAAAAGCAAUAUUACGUAAA	-1.34 ± 0.077	-1.1 ± 0.09
CGCCAGCAAUAUUACGGGUC	-2.81 ± 0.14	-2.6 ± 0.17
AACGAGCAAUAUUACGAUUA	-1.89 ± 0.16	-1.02 ± 0.16
GUAAAGCAAUAUUACGCCAA	-0.7 ± 0.17	-0.982 ± 0.26
ACGGAGCAAUAUUACGUCCA	-3.19 ± 0.17	-0.993 ± 0.15
ACUGAGCAAUAUUACGCUCA	-3.23 ± 0.24	-1.87 ± 0.18
ACGCAGCAAUAUUACGACAU	-0.318 ± 0.011	0.305 ± 0.032
UCCCAGCAAUAUUACGAGAG	-3.41 ± 0.29	-2.14 ± 0.21
GUAAAGCAAUAUUACGUUCG	-0.724 ± 0.061	-0.407 ± 0.084
UGUGAGCAAUAUUACGUGAG	-1.67 ± 0.14	-1.52 ± 0.18
GUAUAGCAAUAUUACGGUCC	-0.391 ± 0.28	-1.19 ± 0.46
CCUGAGCAAUAUUACGUAAC	–	-2.3 ± 0.35
AGCUAGCAAUAUUACGUCGA	-2.69 ± 0.2	-1.9 ± 0.14
GUGUAGCAAUAUUACGGCGG	-2.81 ± 0.23	-1.6 ± 0.19
CCCAAGCAAUAUUACGCUAA	-3.05 ± 0.29	-1.23 ± 0.21
GGCUAGCAAUAUUACGCUCG	-2.15 ± 0.24	-0.647 ± 0.19
AAUAAGCAAUAUUACGUAAA	-1.89 ± 0.1	-1.22 ± 0.14

Sequence	self-splicing fitness (ln) (30 °C)	self-splicing fitness (ln) (37 °C)
UCCAAGCAAUAUUACGUUCA	-1.4 ± 0.13	-0.51 ± 0.11
CCACAGCAAUAUUACGACUA	-3.08 ± 0.25	-2.88 ± 0.29
GGAUAGCAAUAUUACGAAUU	-2.56 ± 0.21	-1.57 ± 0.19
UGAUAGCAAUAUUACGGGGU	-2.68 ± 0.21	-2.35 ± 0.28
UGUCAGCAAUAUUACGUAUU	-1.77 ± 0.071	-0.932 ± 0.081
UGGUAGCAAUAUUACGUCAG	-2.07 ± 0.19	-0.266 ± 0.15
CACCAGCAAUAUUACGUUGC	-3.93 ± 0.17	-3.5 ± 0.24
AUAAAGCAAUAUUACGUGCU	-1.29 ± 0.08	-0.736 ± 0.11
CCCGAGCAAUAUUACGGGUA	-3.44 ± 0.2	-3.43 ± 0.23
CGAAAGCAAUAUUACGGAUC	-2.95 ± 0.16	-2.02 ± 0.15
AACUAGCAAUAUUACGGCUA	-1.08 ± 0.11	-1.22 ± 0.11
CCCUAGCAAUAUUACGCACG	-3.98 ± 0.37	-1.74 ± 0.18
AAGAAGCAAUAUUACGCAGU	-2.66 ± 0.18	-2.08 ± 0.15
AUAUAGCAAUAUUACGUUCC	-1.69 ± 0.29	–
GCCCAGCAAUAUUACGAACG	-1.79 ± 0.32	-0.725 ± 0.34
AUGGAGCAAUAUUACGUGGA	-4.25 ± 0.4	-1.78 ± 0.29
UUACAGCAAUAUUACGGUUU	-0.925 ± 0.046	0.136 ± 0.066
CGCAAGCAAUAUUACGUACA	-2.03 ± 0.11	-0.56 ± 0.085
AUAAAGCAAUAUUACGUGAC	-2.94 ± 0.19	-1.57 ± 0.18
AAAUAGCAAUAUUACGCAAU	-2.44 ± 0.13	-0.689 ± 0.12
AAACAGCAAUAUUACGAUAA	-1.6 ± 0.085	-0.365 ± 0.092
UAAAAGCAAUAUUACGCAGU	-2.66 ± 0.16	-1.3 ± 0.13
AACCAGCAAUAUUACGGUUU	-3.26 ± 0.12	-2.96 ± 0.17
GUGCAGCAAUAUUACGGGUU	-3.37 ± 0.13	-0.752 ± 0.095
CGGCAGCAAUAUUACGCGCC	-4.3 ± 0.43	-3.04 ± 0.47
